Measured values taken from patent publication US20180305460A1.

Tests used:
[1] = target: interferon-alpha/β receptor (IFNAR) (human) (UniProt P17181)
[2] = target: interferon-alpha/β receptor (IFNAR) (human) (UniProt P17181); remark: listed apart in the source
[3] = target: interferon-alpha/β receptor (IFNAR) (human) (UniProt P17181); remark: listed apart in the source

Chain of interferon-alpha/β receptor (IFNAR) (human) (P17181 28-557 limits assumed): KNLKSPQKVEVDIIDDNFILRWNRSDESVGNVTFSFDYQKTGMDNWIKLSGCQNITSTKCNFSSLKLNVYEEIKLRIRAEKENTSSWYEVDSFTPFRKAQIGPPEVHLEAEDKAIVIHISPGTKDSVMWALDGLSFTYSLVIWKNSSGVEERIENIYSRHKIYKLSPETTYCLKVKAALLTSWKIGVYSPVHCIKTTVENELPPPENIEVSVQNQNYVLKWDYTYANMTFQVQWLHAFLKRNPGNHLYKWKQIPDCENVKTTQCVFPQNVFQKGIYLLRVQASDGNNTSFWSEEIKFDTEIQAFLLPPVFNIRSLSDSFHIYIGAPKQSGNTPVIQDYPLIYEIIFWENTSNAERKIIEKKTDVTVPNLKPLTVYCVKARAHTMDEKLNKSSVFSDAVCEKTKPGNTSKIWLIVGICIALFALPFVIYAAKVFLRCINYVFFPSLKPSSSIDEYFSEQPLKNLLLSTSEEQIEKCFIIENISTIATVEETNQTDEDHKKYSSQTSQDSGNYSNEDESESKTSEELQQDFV

Intron A (ligand) was tested, and the EC50; HEK-Blue IFN-alpha/β SEAP reporter (A630) on CD38-negative cells; table column headed 'IFNa2b', curve labelled 'Intron A', the unit comes from the x axis 'IFN pM' [1] was 1.52 pM, the half-maximal concentration headed 'IC50 pM' on the sheet (paragraph 233 calls the values EC50; the curves rise); iLite IFN-response-element luciferase reporter (RLU) [2] was 0.0645 pM and the EC50; HEK-Blue IFN-alpha/β SEAP reporter (A630nm), left panel, the unit comes from the x axis 'Ifnα2b Equivalents in pM' [3] was 1.13 pM. For the same substance, the EC50; HEK-Blue IFN-alpha/β SEAP reporter (A630nm), right panel, the unit comes from the x axis 'IFNα2b equivlaents in pM' [3] was 1.52 pM.
